Data published in the supplement of paper PMC10567573.

B1: TRAF3IP2 (parent)
chain: KQGSMNFRFIPVLFPNAKKEHVPT
B2: CFHR2 (parent)
chain: FVENGHSESSGQTHLEGDTVQIIC
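Further: lentivirally expressed fusions sorted by FACS into six bins by GFP to DsRed ratio, PSI derived from sequencing read proportions per bin multiplied by bin number.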

Variants of: B1
Assay: protein stability index of a GFP-peptide fusion (GPS, HEK-293T) (PSI 1-6); higher = more stable
Conditions: c terminus: a fixed tail appended
For KQGSMNFRFIPVLFPNAKKEDVPT [H21D], the protein stability index was 2.06.
For KQGSMNFRFIPVLFPNAKKELVPT [H21L], the protein stability index was 2.23.
KQGSMNFRFIPVLFPNAKKEKVPT [H21K] gave a protein stability index of 1.77.
Variant KQGSMNFRFIPVLFPNAKKENVPT [H21N] has a protein stability index of 2.21.
For KQGSMNFRFIPVLFPNAKKEYVPT [H21Y], the protein stability index was 1.82.
For KQGSMNFRFIPVLFPNAKKEIVPT [H21I], the protein stability index was 1.59.
Work on KQGSMNFRFIPVLFPNAKKETVPT [H21T] yielded a protein stability index of 2.15.
KQGSMNFRFIPVLFPNAKKEVVPT [H21V] gave a protein stability index of 1.94.
KQGSMNFRFIPVLFPNAKKEEVPT [H21E] gave a protein stability index of 2.47.
In the case of KQGEMNFRFIPVLFPNAKKEHVPT [S4E], the protein stability index is reported as 2.57.
In the case of KQGPMNFRFIPVLFPNAKKEHVPT [S4P], the protein stability index is reported as 2.98.
Variant KQGFMNFRFIPVLFPNAKKEHVPT [S4F] has a protein stability index of 1.5.
Work on KQGRMNFRFIPVLFPNAKKEHVPT [S4R] yielded a protein stability index of 1.48.
For KQGVMNFRFIPVLFPNAKKEHVPT [S4V], the protein stability index was 1.87.
KQGGMNFRFIPVLFPNAKKEHVPT [S4G] showed a protein stability index of 1.53.
In the case of KQGNMNFRFIPVLFPNAKKEHVPT [S4N], the protein stability index is reported as 2.26.
KQGYMNFRFIPVLFPNAKKEHVPT [S4Y] gave a protein stability index of 2.14.
With KQGWMNFRFIPVLFPNAKKEHVPT [S4W] the protein stability index was 1.41.
Work on KQGHMNFRFIPVLFPNAKKEHVPT [S4H] yielded a protein stability index of 1.68.
KQGTMNFRFIPVLFPNAKKEHVPT [S4T] showed a protein stability index of 2.
Variant KHGSMNFRFIPVLFPNAKKEHVPT [Q2H] has a protein stability index of 1.63.
KSGSMNFRFIPVLFPNAKKEHVPT [Q2S] showed a protein stability index of 1.82.
Work on KAGSMNFRFIPVLFPNAKKEHVPT [Q2A] yielded a protein stability index of 2.47.
With KMGSMNFRFIPVLFPNAKKEHVPT [Q2M] the protein stability index was 1.48.
KKGSMNFRFIPVLFPNAKKEHVPT [Q2K] showed a protein stability index of 1.91.
For KNGSMNFRFIPVLFPNAKKEHVPT [Q2N], the protein stability index was 1.91.
Work on KPGSMNFRFIPVLFPNAKKEHVPT [Q2P] yielded a protein stability index of 1.93.
KFGSMNFRFIPVLFPNAKKEHVPT [Q2F] showed a protein stability index of 1.87.
With KIGSMNFRFIPVLFPNAKKEHVPT [Q2I] the protein stability index was 2.82.
In the case of KVGSMNFRFIPVLFPNAKKEHVPT [Q2V], the protein stability index is reported as 1.85.
KDGSMNFRFIPVLFPNAKKEHVPT [Q2D] gave a protein stability index of 1.8.
KQGSMNYRFIPVLFPNAKKEHVPT [F7Y] gave a protein stability index of 2.59.
For KQGSMNGRFIPVLFPNAKKEHVPT [F7G], the protein stability index was 3.01.
For KQGSMNQRFIPVLFPNAKKEHVPT [F7Q], the protein stability index was 3.19.
KQGSMNLRFIPVLFPNAKKEHVPT [F7L] showed a protein stability index of 1.91.
For KQGSMNMRFIPVLFPNAKKEHVPT [F7M], the protein stability index was 2.32.
For KQGSMNTRFIPVLFPNAKKEHVPT [F7T], the protein stability index was 2.73.
Variant KQGSMNDRFIPVLFPNAKKEHVPT [F7D] has a protein stability index of 2.91.
Work on KQGSMNPRFIPVLFPNAKKEHVPT [F7P] yielded a protein stability index of 3.31.
With KQQSMNFRFIPVLFPNAKKEHVPT [G3Q] the protein stability index was 1.85.
KQTSMNFRFIPVLFPNAKKEHVPT [G3T] gave a protein stability index of 2.44.
With KQSSMNFRFIPVLFPNAKKEHVPT [G3S] the protein stability index was 1.82.
Variant KQPSMNFRFIPVLFPNAKKEHVPT [G3P] has a protein stability index of 1.74.
Variant KQVSMNFRFIPVLFPNAKKEHVPT [G3V] has a protein stability index of 2.06.
With KQASMNFRFIPVLFPNAKKEHVPT [G3A] the protein stability index was 1.9.
In the case of KQNSMNFRFIPVLFPNAKKEHVPT [G3N], the protein stability index is reported as 2.05.
Variant KQISMNFRFIPVLFPNAKKEHVPT [G3I] has a protein stability index of 1.77.
In the case of KQKSMNFRFIPVLFPNAKKEHVPT [G3K], the protein stability index is reported as 1.6.
KQGSMNFCFIPVLFPNAKKEHVPT [R8C] gave a protein stability index of 2.52.
In the case of KQGSMNFDFIPVLFPNAKKEHVPT [R8D], the protein stability index is reported as 3.3.
In the case of KQGSMNFIFIPVLFPNAKKEHVPT [R8I], the protein stability index is reported as 2.88.
With KQGSMNFGFIPVLFPNAKKEHVPT [R8G] the protein stability index was 1.9.
Variant KQGSMNFTFIPVLFPNAKKEHVPT [R8T] has a protein stability index of 2.04.
Variant KQGSMNFNFIPVLFPNAKKEHVPT [R8N] has a protein stability index of 2.8.
KQGSMNFRCIPVLFPNAKKEHVPT [F9C] showed a protein stability index of 2.15.
KQGSMNFRDIPVLFPNAKKEHVPT [F9D] showed a protein stability index of 3.99.
With KQGSMNFRKIPVLFPNAKKEHVPT [F9K] the protein stability index was 3.41.
KQGSMNFRVIPVLFPNAKKEHVPT [F9V] showed a protein stability index of 2.77.
Work on KQGSMNFRMIPVLFPNAKKEHVPT [F9M] yielded a protein stability index of 2.69.
Variant KQGSMNFRTIPVLFPNAKKEHVPT [F9T] has a protein stability index of 3.66.
With KQGSMNFRHIPVLFPNAKKEHVPT [F9H] the protein stability index was 3.38.
Work on KQGSMNFRFIPVLFPNSKKEHVPT [A17S] yielded a protein stability index of 2.21.
Work on KQGSMNFRFIPVLFPNEKKEHVPT [A17E] yielded a protein stability index of 2.47.
With KQGSMNFRFIPVLFPNFKKEHVPT [A17F] the protein stability index was 1.64.
KQGSMKFRFIPVLFPNAKKEHVPT [N6K] showed a protein stability index of 1.6.
With KQGSMDFRFIPVLFPNAKKEHVPT [N6D] the protein stability index was 1.89.
KQGSMFFRFIPVLFPNAKKEHVPT [N6F] gave a protein stability index of 1.74.
With KQGSMNFRFIPVLFINAKKEHVPT [P15I] the protein stability index was 2.17.
Work on KQGSMNFRFIPVLFWNAKKEHVPT [P15W] yielded a protein stability index of 2.67.
For KQGSMNFRFIPVLFCNAKKEHVPT [P15C], the protein stability index was 1.7.
KQGSMNFRFIPVLFQNAKKEHVPT [P15Q] showed a protein stability index of 1.41.
KQGSMNFRFIPVLFKNAKKEHVPT [P15K] showed a protein stability index of 1.52.
KQGSMNFRFIPVLFVNAKKEHVPT [P15V] gave a protein stability index of 2.56.
With KQGSMNFRFIPVLFANAKKEHVPT [P15A] the protein stability index was 1.66.
KQGSMNFRFIPVLFPNAKKEHNPT [V22N] showed a protein stability index of 2.23.
Work on KQGSMNFRFIPVLFPNAKKEHHPT [V22H] yielded a protein stability index of 1.73.
In the case of KQGSMNFRFIPVLFPNAKKEHSPT [V22S], the protein stability index is reported as 3.
In the case of KQGSMNFRFIPVLFPNAKKEHLPT [V22L], the protein stability index is reported as 2.09.
In the case of KQGSMNFRFIPVLFPNAKKEHYPT [V22Y], the protein stability index is reported as 1.91.
KQGSMNFRFIPVLFPNAKKEHWPT [V22W] gave a protein stability index of 1.6.
Variant KQGSMNFRFIPVLFPNAKKEHTPT [V22T] has a protein stability index of 2.38.
KQGSMNFRFIPVLFPNAKKEHMPT [V22M] gave a protein stability index of 2.24.

Variants of: B2
Assay: as above
Conditions: c terminus: a fixed tail appended
HVENGHSESSGQTHLEGDTVQIIC [F1H] showed a protein stability index of 4.43.
IVENGHSESSGQTHLEGDTVQIIC [F1I] gave a protein stability index of 4.
With PVENGHSESSGQTHLEGDTVQIIC [F1P] the protein stability index was 4.61.
Work on AVENGHSESSGQTHLEGDTVQIIC [F1A] yielded a protein stability index of 4.27.
MVENGHSESSGQTHLEGDTVQIIC [F1M] gave a protein stability index of 4.23.
Work on KVENGHSESSGQTHLEGDTVQIIC [F1K] yielded a protein stability index of 4.2.
Variant LVENGHSESSGQTHLEGDTVQIIC [F1L] has a protein stability index of 3.89.
CVENGHSESSGQTHLEGDTVQIIC [F1C] showed a protein stability index of 3.73.
In the case of DVENGHSESSGQTHLEGDTVQIIC [F1D], the protein stability index is reported as 4.7.
Variant GVENGHSESSGQTHLEGDTVQIIC [F1G] has a protein stability index of 4.33.
Variant NVENGHSESSGQTHLEGDTVQIIC [F1N] has a protein stability index of 4.1.
In the case of EVENGHSESSGQTHLEGDTVQIIC [F1E], the protein stability index is reported as 4.95.
